Like-named read-outs stand apart in the source and are kept apart here. Primed or numbered codes have the meaning given here. Where no end group is shown, it is not given here. [ ]: non-standard residue; d: D form. Fc(6) = Fc vehicle: non-antigen-binding antibody fragment (from proteolytic digestion of an antibody) fused to the peptide; Fc(8) = Fc vehicle: non-antigen-binding antibody fragment fused to the peptide (peptibody); Fc(5) = non-antigen-binding fragment of an antibody (vehicle) fused to the peptide; Fc(9) = antibody Fc fragment, the non-antigen-binding fragment
Columns and labels:
Colo-205 tumor = settings: for tumor growth vs. vehicle control: from study day 14: 2×Con4-C 350 μg/mouse s.c. twice a week, p<0.0001
Description: Female nude mice were injected subcutaneously with 2×10^6 Colo-205 cells plus Matrigel (2:1) on study day 0. At day 3, the Ang-2 peptibodies L1-7-N, L1-21-N, Con4-C, and 2×Con4-C were administered subcutaneously at the dose of […], twice a week.
Female nude mice were injected subcutaneously with 2×10^6 Colo-205 cells plus Matrigel (2:1) on study day 0.
Female nude mice were injected subcutaneously with 2×10^6 Colo-205 cells plus Matrigel (2:1) on study day 0. At day 3, Ang-2 peptibody 2×Con4-C or control peptibody were administered subcutaneously at the dose of 350 μg/day. Tumors from groups treated with control peptibody (as described in Table 5) were harvested either at Day 14 (size-matched control) or Day 18 (time-matched control). Tumors from 2×Con4(C) treated group were then harvested at Day 18. Tumor volumes were recorded at regular intervals, as shown.
Female nude mice were injected subcutaneously with 2×10^6 Colo-205 cells plus Matrigel (2:1) on study day 0. Treatment with 350 μg/mouse, s.c. twice a week, of the Ang-2 peptibody 2×Con4-C, or equivalent control peptibody started either at study day 3, 10 or 15. […] The results are set forth in FIG. 8 (body weights not shown).
Female nude mice were injected subcutaneously with 2×10^6 Colo-205 cells plus Matrigel (2:1) on study day 0. At study day 14, treatments were started with a) 350 μg/mouse, s.c. twice a week, of the Ang-2 peptibody 2×Con4-C, b) 20 mg/kg qwx3 i.p. of taxotere, or c) a combination of both.
Female nude mice were injected subcutaneously with 2×10^6 Colo-205 cells plus Matrigel (2:1) on study day 0. At study day 14 started treatments with a) 350 μg/mouse, s.c. twice a week, of the Ang-2 peptibody 2×Con4-C, b) 50 mg/kg qdx5 i.p. of 5-FU, or c) a combination of both.

huAng2 = biological target: T1, huAng2 (Homo sapiens, UniProt O15123); assay: BIAcore binding to huAng2 (Example 9); settings: Table 8
T1 construct: purchased R&D Systems BNO12103A
T1 sequence (O15123 68-496 limits assumed): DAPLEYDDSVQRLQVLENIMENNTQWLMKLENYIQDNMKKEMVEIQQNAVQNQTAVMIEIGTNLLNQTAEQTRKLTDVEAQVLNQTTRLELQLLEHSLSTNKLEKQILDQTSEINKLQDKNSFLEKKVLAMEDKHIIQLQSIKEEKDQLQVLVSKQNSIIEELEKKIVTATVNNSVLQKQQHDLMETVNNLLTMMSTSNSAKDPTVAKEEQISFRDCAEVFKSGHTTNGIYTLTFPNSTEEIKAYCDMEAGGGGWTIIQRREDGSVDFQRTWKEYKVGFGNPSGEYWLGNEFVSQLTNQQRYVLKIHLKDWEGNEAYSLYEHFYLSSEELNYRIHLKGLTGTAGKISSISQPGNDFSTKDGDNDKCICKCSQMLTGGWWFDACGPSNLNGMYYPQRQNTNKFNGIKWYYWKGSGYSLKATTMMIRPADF
Description: Six samples of anti-Ang2 peptibodies were tested for their binding activity to huAng2 (R&D Systems, BNO12103A) on BIAcore. Protein G was immobilized to a CM5 chip according to the standard amine-coupling protocol (BIAcore Inc.), and the peptibodies were then injected over a protein G surface for capturing (RL˜100 Ru). To test binding between hAng2 and the captured peptibody, 0.3 nM to 40 nM of huAng2 was injected over the captured peptibody surfaces, and binding sensorgrams were analyzed using BIAevaluation 3.0 (BIAcore Inc.).

hAng-1 = biological target: T2, hAng-1 (Homo sapiens, UniProt Q15389); assay: Neutralization ELISA (Example 2); assay type: binding; settings: Table 5; about 1 nM Tie-2-Fc
T2 sequence (Q15389 16-498): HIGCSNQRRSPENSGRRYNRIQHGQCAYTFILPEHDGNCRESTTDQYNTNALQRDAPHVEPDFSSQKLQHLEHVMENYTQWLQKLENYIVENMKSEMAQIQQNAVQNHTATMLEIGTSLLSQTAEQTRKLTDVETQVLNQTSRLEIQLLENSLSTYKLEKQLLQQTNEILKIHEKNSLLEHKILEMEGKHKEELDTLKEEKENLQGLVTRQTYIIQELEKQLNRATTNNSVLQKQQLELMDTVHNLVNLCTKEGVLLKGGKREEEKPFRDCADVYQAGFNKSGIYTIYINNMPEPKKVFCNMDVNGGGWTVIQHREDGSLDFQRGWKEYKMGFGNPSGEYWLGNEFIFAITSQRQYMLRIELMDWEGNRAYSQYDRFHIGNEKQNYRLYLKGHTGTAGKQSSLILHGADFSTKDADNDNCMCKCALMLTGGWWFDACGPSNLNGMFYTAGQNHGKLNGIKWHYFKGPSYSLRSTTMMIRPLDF

hAng-2 = biological target: T3, hAng-2 (Homo sapiens, UniProt O15123); assay: Affinity BIAcore (Example 2); assay type: binding; settings: Table 6
T3 construct: conditioned media of human 293T cells transfected with full length human Ang-2 DNA; made in house; host or cells: conditioned media
T3 sequence (O15123 19-496): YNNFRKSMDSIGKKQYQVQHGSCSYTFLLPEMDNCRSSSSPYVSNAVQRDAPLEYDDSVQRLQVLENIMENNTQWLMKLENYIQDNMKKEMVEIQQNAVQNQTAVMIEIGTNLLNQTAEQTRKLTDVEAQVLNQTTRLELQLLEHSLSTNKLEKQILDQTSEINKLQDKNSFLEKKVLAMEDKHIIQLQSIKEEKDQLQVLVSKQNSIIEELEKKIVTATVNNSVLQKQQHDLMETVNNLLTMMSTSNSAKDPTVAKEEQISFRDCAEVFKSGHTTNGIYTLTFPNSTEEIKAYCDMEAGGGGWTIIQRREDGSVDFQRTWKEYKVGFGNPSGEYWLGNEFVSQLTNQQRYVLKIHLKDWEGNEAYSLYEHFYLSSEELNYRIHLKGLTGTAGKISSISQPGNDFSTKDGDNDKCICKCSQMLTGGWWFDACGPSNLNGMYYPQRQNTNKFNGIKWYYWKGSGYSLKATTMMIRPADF
Description: (§1) Binding assays were carried out by first capturing about 100 Ru of each candidate anti-Ang-2 peptibody to the immobilized Protein G, after which various concentrations (0-100 nM) of huAng-2 or mAng-2 were injected over the bound antibody surface at a flow rate of 50 μl/min for 3 minutes. Peptibody binding kinetic parameters including ka (association rate constant), kd (dissociation rate constant) and KD (dissociation equilibrium constant) were determined using the BIA evaluation 3.1 computer program (Biacore, Inc.). Lower dissociation equilibrium constants indicated greater affinity of the peptibody for Ang-2.

mAng-2 = biological target: T4, mAng-2 (Mus musculus, UniProt O35608); assay: Affinity BIAcore (Example 2); assay type: binding, murine; settings: Table 6
T4 construct: made in house
T4 sequence (O35608 19-496): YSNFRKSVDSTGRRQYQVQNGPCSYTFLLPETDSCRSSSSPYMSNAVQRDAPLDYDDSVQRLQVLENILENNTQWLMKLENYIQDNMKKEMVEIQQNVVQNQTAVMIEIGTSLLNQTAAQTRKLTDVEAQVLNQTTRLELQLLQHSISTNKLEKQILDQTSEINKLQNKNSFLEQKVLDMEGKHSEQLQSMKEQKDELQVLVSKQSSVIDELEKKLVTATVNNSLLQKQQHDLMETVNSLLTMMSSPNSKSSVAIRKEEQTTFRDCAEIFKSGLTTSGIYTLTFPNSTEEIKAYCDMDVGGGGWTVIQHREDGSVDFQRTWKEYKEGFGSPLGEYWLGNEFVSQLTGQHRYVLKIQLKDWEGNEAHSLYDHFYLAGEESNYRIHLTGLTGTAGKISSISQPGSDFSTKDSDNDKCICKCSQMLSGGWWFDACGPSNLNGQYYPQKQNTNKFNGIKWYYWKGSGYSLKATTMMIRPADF
Description: as §1

Molecule | ka (huAng2) | kd (huAng2) | hAng-1 IC 50 (hAng-1) | also measured
O=c1[nH]cc(F)c(=O)[nH]1 [Peptibody 5-FU, 5-FU, reference compound] |  |  |  | tumor growth vs. vehicle control (Colo-205 tumor; Example 19b, 5-FU 50 mg/kg qdx5 i.p., or both): Significant differences in tumor growth; transient reduction in body weight (Colo-205 tumor; Example 19b, at study day 20, followed by complete recovery): 18%
CC(=O)O[C@@]12CO[C@@H]1C[C@H](O)[C@@]1(C)C(=O)[C@H](O)C3=C(C)[C@@H](OC(=O)[C@H](O)[C@@H](NC(=O)OC(C)(C)C)c4ccccc4)C[C@@](O)([C@@H](OC(=O)c4ccccc4)[C@H]21)C3(C)C [taxotere, reference compound] |  |  |  | tumor growth vs. vehicle control (Colo-205 tumor; Example 19a, taxotere 20 mg/kg qwx3 i.p., or both): Significant differences in tumor growth
M-Fc-GGGGGAQ-PIRQEECDWDPWTCEHMWEV-LE (M[Fc(8)]GGGGGAQPIRQEECDWDPWTCEHMWEVLE; cysteine pairing not given here; also: Fc vehicle fused at position 2) [Con4-44 (C)] | 290000 M⁻¹ s⁻¹ | 5.9e-05 s⁻¹ |  | 
MGAQ-FDYCEGVEDPFTFGCDNHLE-GGGGG-Fc (MGAQFDYCEGVEDPFTFGCDNHLEGGGGG[Fc(6)]; cysteine pairing not given here) [12-9 (N)] |  |  | No In- | hAng-2 ka (hAng-2): 120000 M⁻¹ s⁻¹; hAng-2 kd (hAng-2): 0.001 s⁻¹; mAng-2 ka (mAng-2): 720000 M⁻¹ s⁻¹; mAng-2 kd (mAng-2): 0.00023 s⁻¹
MGAQ-HQICKWDPWTCKHWLEGGGGG-Fc (MGAQHQICKWDPWTCKHWLEGGGGG[Fc(5)]; not fully specified (bridges); printed as MGAQ-HQICKWDPWTCKHWLEGGGGG-Fc; cysteine pairing not given here) [8-14 (N)] |  |  | No In- | 
MGAQ-HTFQPLDELEETLYYQWLYDQL LEGGGGG-Fc (MGAQHTFQPLDELEETLYYQWLYDQLLEGGGGG[Fc]; also: Fc vehicle domain fused (peptibody)) [L1-21 (N)] | 560000 M⁻¹ s⁻¹ | 0.00014 s⁻¹ |  | 
MGAQ-KRPCEEIFGGCTYQLEGGGGG-Fc (MGAQKRPCEEIFGGCTYQLEGGGGG[Fc(5)]; not fully specified (bridges); printed as MGAQ-KRPCEEIFGGCTYQLEGGGGG-Fc; cysteine pairing not given here) [Con1 (N)] |  |  | No In- | 
MGAQ-KRPCEEMWGGCNYDLEGGGGG-Fc (MGAQKRPCEEMWGGCNYDLEGGGGG[Fc(5)]; not fully specified (bridges); printed as MGAQ-KRPCEEMWGGCNYDLEGGGGG-Fc; cysteine pairing not given here) [8-8 (N)] |  |  | No In- | 
MGAQ-QKFQPLDELEQTLYEQFMLQQA LEGGGGG-Fc (MGAQQKFQPLDELEQTLYEQFMLQQALEGGGGG[Fc]; also: Fc vehicle domain fused (peptibody)) [L1-10 (N)] | 150000 M⁻¹ s⁻¹ | 0.00011 s⁻¹ |  | 
MGAQ-QYGCDGFLYGCMINLE-GGGGG-Fc (MGAQQYGCDGFLYGCMINLEGGGGG-{Fc(9)}; not fully specified (bridges); printed as MGAQ-QYGCDGFLYGCMINLE-GGGGG-Fc; cysteine pairing not given here) [C17 (N)] |  |  | No In- | 
MGAQ-TNFMPMDDLEQRLYEQFILQQG-LEGGGGG-Fc (MGAQTNFMPMDDLEQRLYEQFILQQGLEGGGGG-Fc) [L1-7 (N)] | 370000 M⁻¹ s⁻¹ | 8.7e-05 s⁻¹ |  | 
MGAQKFNPLDELEETLYEQFTFQQLEGGGGG-Fc [L1 (N)] |  |  | No In- | hAng-2 ka (hAng-2): 290000 M⁻¹ s⁻¹; hAng-2 kd (hAng-2): 0.00091 s⁻¹; mAng-2 ka (mAng-2): 560000 M⁻¹ s⁻¹; mAng-2 kd (mAng-2): 0.00023 s⁻¹

Reference: US9200040B2, “Specific binding agents of human angiopoietin-2” (Amgen Inc., priority 2001, dated 2015)
